Earlier results, collected in publication PMC10404613.

Biological target: UBC9 (Homo sapiens) (UniProt P63279)
Chain of UniProt P63279 (P63279 2-158): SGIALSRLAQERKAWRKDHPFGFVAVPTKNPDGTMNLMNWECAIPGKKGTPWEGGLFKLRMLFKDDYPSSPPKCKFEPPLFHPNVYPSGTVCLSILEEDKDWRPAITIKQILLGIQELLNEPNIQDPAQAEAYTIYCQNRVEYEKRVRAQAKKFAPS

- Kd: 0.1 µM
Substance: SUMO1 (from UniProt P63165)
